Assay results as given in patent US8357523B2, “Beta-glucosidase variant enzymes and related polynucleotides” (Codexis, Inc., priority 2009, dated 2013).
Positions count from the first letter of the chain named. Names and notes keep the numbering of the source.

Key:
Type in all cases: biochemical
[1] = High throughput cellobiose assay: fold improvement in cellobiase activity of CelA variants over a control enzyme (Tables 2A-2D, 3, 5, 6, 7); conditions: for activity (e.g., thermoactivity) over the wildtype A. irakense β-glucosidase: assay of Example 7; for activity (e.g., thermoactivity) over the wildtype A. irakense β-glucosidase, demonstrated indirectly: shown by improvement over a chain of controls, of which Variant No. 5 was directly compared to the wildtype
[2] = Enzyme stability: residual activity on pNPG after pre-incubation at high temperature and low pH; conditions: residual activity on pNPG at pH 7, 30° C.; for % residual activity after 10 mins @ pH 5.5, 55° C.: pre-incubation 10 mins at pH 5.5, 55° C.; for % residual activity after 10 mins @ pH 5.5, 55° C. / % residual activity after 6 hours @ pH 5.5, 55° C.: 1 hr; for % residual activity after 1 hour @ pH 5.5, 55° C.: pre-incubation 1 hour at pH 5.5, 55° C.; for % residual activity after 6 hours @ pH 5.5, 55° C.: pre-incubation 6 hours at pH 5.5, 55° C.
Procedure: Residual activity is determined by exposing the enzyme to stress conditions of elevated temperature for a period of time and then determining the β-glucosidase activity. The β-glucosidase activity of the enzyme exposed to stress conditions (“a”) is compared to that of a control in which the enzyme is not exposed to the stress conditions (“b”), and residual activity is equal to the ratio a/b. Exemplary conditions for determining thermostability are provided in Examples 9 and 13. In one embodiment the enzymes are exposed to stress conditions of 50° C. at pH 5.5 or 55° C. at pH 5.0 or 55° C. at pH 5.5, or 65° C. at pH 5.0 for about 1 hour, and assayed at 30° C., pH 7, for about 0.1 hour.
A colorimetric pNPG (p-nitrophenyl-(β-D-glucopyranoside)-based assay was used for measuring β-glucosidase activity. In a total volume of 100 μL, 20 μL clear media supernatant containing β-glucosidase enzyme was added to 4 mM pNPG (Sigma-Aldrich, Inc. St. Louis, Mo.) solution in 50 mM sodium phosphate buffer at pH6.5. The reactions were incubated at pH 6.5, 45° C. for 1 hour. The reaction mixture was quenched with 100 μL of 1M sodium carbonate pH 11 solution. The absorbance of the solution was measured at 405 nm to determine the conversion of pNPG to p-nitrophenol. The release of p-nitrophenol (ε=17,700 M−1 cm−1) was measured at 405 nm to calculate β-glucosidase activity. Detectable β-glucosidase activity was observed under high throughput screening conditions (pH 7, 50° C.).
Four CelA variants and wildtype CelA were characterized to determine their stabilities at high temperature (55° C.) and low pH (pH5.5) using the method of Example 5A. The samples containing various CelA variant enzymes were pre-incubated at pH 5.5, 55° C. for 0-6 hrs. The residual enzyme activity after the thermal challenge was measured using pNPG as substrate at pH 7, 30° C. for 1 hr. […] The mutations listed in the table are indicated relative to SEQ ID NO: 4, the wildtype CelA. These sequences included residues GTS prior to the N-terminus of SEQ ID NO: 4 (prepared as described in Example 1). […]

[3] = Activity profile at different temperatures and pH using cellobiose (10 g/L) as substrate
Procedure: β-glucosidase activity was also determined using a cellobiose assay, which used cellobiose as substrate. In a total volume of 100 μL, 25 μL clear media supernatant containing CelA enzyme was added to 10 g/L cellobiose (Fluka Cat. No. 22150, Sigma-Aldrich, Inc., St. Louis, Mo.) in 100 mM sodium phosphate buffer (pH 6-7) or sodium acetate buffer (pH 5-5.5). The reaction was incubated at 45-70° C. for an appropriate time (25 minutes to overnight depending on the enzyme concentration) while shaking. Glucose production was determined using an enzymatic glucose assay (K-GLUC, Megazyme, Ireland). 10 μl of each reaction was added to 190 μl GOPOD reagent (supplied as part of the K-GLUC assay kit). The reaction was incubated at 45° C. for 20 minutes and the absorbance of the solution was measured at 510 nm. The GOPOD reagent contains 50 mM Potassium phosphate buffer pH7.4, 0.011M p-hydroxybenzoic acid, 0.008% w/v sodium azide, glucose oxidase (>12,000 U/L), peroxidase (>650 U/L) and 80 mg/L 4-aminoantipyrine. The glucose oxidase enzyme in the reagent reacts with any glucose present in the sample and produces hydrogen peroxide which then reacts with the 4-aminoantipyrine to produce a quinoneimine dye in quantities proportionate with the amount of glucose present and can be measured spectrophotometrically at 510 nm. Detectable β-glucosidase activity was observed under high throughput screening conditions (i.e., pH 7, 50° C.).
The native CelA activity profile was investigated at different temperatures (40-55° C.) and pH (5.0-8.0) using cellobiose (10 g/L) as a substrate. The experimental and analytical procedures are described in Example 5.
The activity profiles for Variant Nos. 264, 366, 391, 463, and 529 were determined at different temperatures and pH using cellobiose (10 g/L) as a substrate. The experimental and analytical procedures are described in Example 5, incubating the variant with cellobiose at temperatures in the range of 45-80. The results are depicted in FIGS. 7-11. […] The temperature and pH profile for this variant is depicted in FIG. 7. […] The temperature and pH profile for this variant is depicted in FIG. 8. […] The temperature and pH profile for this variant is depicted in FIG. 9. […] (with the pH 6 optimum determined by extrapolation). The temperature and pH profile for this variant is depicted in FIG. 10. […] The temperature and pH profile for this variant is depicted in FIG. 11.

[4] = Saccharification of microcrystalline cellulose by Trichoderma reesei whole cellulase supplemented with β-glucosidase; conditions: 1 g/L TRWC alone or 25% of TRWC substituted with the β-glucosidase; 200 g/L Avicel, 100 g/L xylose, pH5.5, 55° C., 48 hours
Text: FIG. 12 illustrates the impact of supplementing a commercially available Trichoderma reesei whole cellulose (“TRWC”) mixture with a CelA variant of the present invention. Compositions containing TRWC were supplemented with β-glucosdiases CelA Variant No. 264 (“Cel var1”), CelA Variant No. 366 (“Cel var2”), and a commercially available Aspergillus niger β-glucosidase (“ANBG”) in a ratio of 3:1 TRWC to β-glucosidase. The effectiveness of each composition at hydrolyzing microcrystalline cellulose was evaluated as described in Example 15. A plot of glucose and cellobiose concentration (g/L) vs. cellulase composition is depicted. The control composition was TRWC with no added β-glucosidase.
The impact of adding a CelA variant of the present invention to commercially available cellulose mixtures and microcrystalline cellulose, Avicel™, was evaluated. In the test reactions, 1 g/L Trichoderma reesei whole cellulose (“TRWC”, Sigma catalog #C85456-10KU (ATCC 26921)) was used to convert 200 g/L of the microcrystalline cellulose Avicel™ (200 mM Sodium acetate; 100 g/L xylose, pH5.5 and 55° C.). The amount of glucose was measured after 48 hours of reaction. As a comparison, 25% of the TRWC was replaced with a β-glucosidase: Variant No. 264 (“Cel var1”), Variant No. 366 (“Cel var2”), or with the commercially available cellobiase, Aspergillus niger beta-glucosidase (“ANBG”, Sigma catalog #49291-1G). […]

B1: Variant No. 5 (protein)
chain: STAIAQEGAAPAAILHPEKWPRPATQRLIDPAVEKRVDALLKQLSVEEKVGQVIQGDIGTITPEDLRKYPLGSILAGGNSGPNGDDRAPPKEWLDLADAFYRVSLEKRPGHTPIPVLFGIDAVHGHGNIGSATIFPHNIALGATRDPELLRRIGEVTAVEMAATGIDWTFAPALSVVRDDRWGRTYEGFSEDPEIVAAYSAAIVEGVQGKFGSKDFMAPGRIVASAKHFLADGGTDQGRDQGDARISEDELIRIHNAGYPPAIDAGVLTVMASFSSWQGIKHHGHKQLLTDVLKGQMGFNGFIVGDWNAHDQVPGCTKFNCPTSLIAGLDMYMAADSWKQLYENTLAQVKDGTIPMARLDDAVRRILRVKVLAGLFEKPAPKDRPGLPGLETLGSPEHRAVGREAVRKSLVLLKNDKGTLPLSPKARVLVAGDGADNIGKQSGGWTISWQGTGNRNDEFPGATSILGGIRDAVADAGGSVEFDVAGQYKTKPDVAIVVFGEEPYAEFQGDVETLEYQPDQKQDLALLKKLKDQGIPVVAVFLSGRPMWVNPELNASDAFVAAWLPGTEGGGVADVLFTDKAGKVQHDFAGKLSYSWPRTAAQTTVNRGDADYNPLFAYGYGLTYKDKSKVGTLPEESGVPAEARQNAGIYFRAGALRLPGRFL
activity (e.g., thermoactivity) over the wildtype A. irakense β-glucosidase [1]: improved activity | % residual activity after 10 mins @ pH 5.5, 55° C. [2]: 0% | % residual activity after 1 hour @ pH 5.5, 55° C. [2]: 0% | % residual activity after 6 hours @ pH 5.5, 55° C. [2]: 0%

B2: Variant No. 94 (protein)
chain: B1 chain with N79D, A143M, V159E, A198S, F211Y
activity (e.g., thermoactivity) over the wildtype A. irakense β-glucosidase [1]: improved activity | % residual activity after 10 mins @ pH 5.5, 55° C. [2]: 3% | % residual activity after 1 hour @ pH 5.5, 55° C. [2]: 0% | % residual activity after 6 hours @ pH 5.5, 55° C. [2]: 0%

B3: Variant No. 366 (protein)
chain: SAAITQEGAAPAAMLHPEKWPRPATQRLIDPAVEKRVDALLKQLSVEEKVGQVIQGDIGTITPEDLRKYPLGSILAGGDSGPNGDDRAPPKEWLDLADAFYRVSLEKRPGHTPIPVLFGIDAVHGHNNIGSATIFPHNIALGMTRDPELLRRIGEVTAEEMAATGIDWTFAPALSVVRDDRWGRTYEGFSEDPEIVASYSAAIVEGFQGKYGSKDFMAPGRAVACAKHFLADGGTDQGRDQGDARISEDELIRIHNAGYPPAIDAGVLTVMASFSSWQGIKHHGHKQLLTDVLKGQMGFNGFIVGDWNAHDQVPGCTKFNCPTSLIAGLDMYMAADSWKQLYENTLAQVKDGTIPMARLDDAVRRILRVKVLAGLFEKPAPKDRPGLPGLETLGSPEHRAVGREAVRKSLVLLKNDKGTLPLSPKARVLVAGDGADNIGKQSGGWTISWQGTGNRNDEFPGATSILGGIRDAVADAGGSVEFDVAGQYKTKPDVAIVVFGEEPYAEFRGDVETLEYQPDQKQDLTLLKKLKDQGIPVVAVFLSGRPMWVNPELNASDAFVAAWLPGTEGGGVADVLFTDKAGKVQHDFAGKLSYSWPRTAAQTTVNRGDADYNPLFAYGYGLTYKDKSKVGTLPEESGVPAEARQN
modifications: catalytic domain; signal sequence F-10T
activity (e.g., thermoactivity) over the wildtype A. irakense β-glucosidase, demonstrated indirectly [1]: improved activity | pH of optimum activity [3]: 6 pH | temperature of optimum activity [3]: 66 °C

B4: T2A + A5T + I14M + N79D + G127N + A143M + H145R + V159E + A198S + V207F + F211Y + I222A + S225C + Q508R + A525T-des[A647-L663] (protein)
chain: B3 chain
cellobiose and glucose combined yielded in saccharification reaction [4]: comparable results

B5: Variant No. 463 (protein)
chain: B3 chain with A3R, S73A, T169N, V177P, A202P, I203Y, A272L, Q287R, D311G, E512G
modifications: catalytic domain
activity (e.g., thermoactivity) over the wildtype A. irakense β-glucosidase, demonstrated indirectly [1]: improved activity | temperature of optimum activity [3]: 69 °C | pH of optimum activity (determined by extrapolation) ([3]; pH optimum determined by extrapolation): 6 pH

B6: Variant No. 391 (protein)
chain: B3 chain with A3R, S73A, V177P, I203Y
modifications: catalytic domain
activity (e.g., thermoactivity) over the wildtype A. irakense β-glucosidase, demonstrated indirectly [1]: improved activity | pH of optimum activity [3]: 5.5 pH | temperature of optimum activity [3]: 69 °C
